The target of data set [1] is Lon-His (C. crescentus) (UniProt B8GX12).
Data set [2] concerns the target Lon^EQ (Lon E420Q, Walker-B mutant) (C. crescentus) (UniProt B8GX12). Put plainly: native MS; purified proteins buffer exchanged into 200 mM ammonium acetate pH 8.0, mixed in equimolar ratios (LarA also in 3-fold excess); nano ESI, Waters Synapt G2, source temperature 30 °C.
The target of data set [3] is Lon-His (C. crescentus) (UniProt B8GX12). This is another data set of the same source.
Data set [4] deals with the molecule itself. Kind of data set: native MS; purified proteins buffer exchanged into 200 mM ammonium acetate pH 8.0, mixed in equimolar ratios (LarA also in 3-fold excess); nano ESI, Waters Synapt G2, source temperature 30 °C.

The values that follow come from publication PMC10665427, “The heat shock protein LarA activates the Lon protease in response to proteotoxic stress” (Nature Communications, 2023).

As for 6xHis-tagged SciP (natural protein), in the data set with Lon-His (C. crescentus) [1], the Km of Lon-mediated His-SciP degradation in vitro, in the presence of 2 µM LarA (0.05 µM Lon-His hexamer) came out at 1.8 µM and the Km of Lon-mediated His-SciP degradation in vitro, without LarA (0.05 µM Lon-His hexamer) came to 9.3 µM. As to LarA, purified (natural protein), the stoichiometry N (LarA molecules per Lon^EQ hexamer) in data set [2] was 6. This molecule returned a rate of Lon-mediated His-SciP degradation against LarA concentration (0 to 15 µM), highest at 2 µM LarA, compared with reactions lacking LarA with Lon-His (C. crescentus) [3] of 5.5 fold.

B1: Lon^EQ (Lon E420Q, Walker-B mutant) (enzyme, C. crescentus, UniProt B8GX12 1-799, looked up)
chain: MSELRTLPVLPLRDIVVFPHMVVPLFVGRDKSVRALEEVMRGDKQILLVTQKNSADDDPAPGDIFEVGVLATVLQLLKLPDGTVKVLVEGKARAAVVSFTDQESYYEAQIGEVSEDDGAGPEAEALSRAVVEQFENYVKLNKKVPPEALASIPQIAEPGKLADSIAAHLSVKIGDKQNLLEIFDVVKRLEKVFALMEGEISVLQVEKKIRSRVKRQMEKTQREYYLNEQMKAIQRELGDPDDARDELIDLEKRIKKTKLSKEARTKAESELKKLRNMSPMSAESTVVRNYLDWLLSIPWGKAKTKKIDLVESEGILDADHYGLEKVKERILEYLAVQARTNSLKGPILCLVGPPGVGKTSLGKSIAKATGREFVRMSLGGVRDEAEIRGHRRTYIGSMPGKVVQSMKKAKTTNAFVLLDQIDKMGSDYRGDPASALLEVLDPSQNSTFGDHYLEVDYDLSQVMFVTTANSLNMPQPLLDRMEIIRIPGYTEDEKLEIAKRHILPKLAKDHGLKPAEFIVPDKAIRDLIRYYTREAGVRSLERELGALARKTVRDLAREKVASITIDDERLAKYAGVKKYRYGETDEVDQVGIVTGLAWTEFGGDILTIEAVKMPGKGRMQITGNLKDVMKESIAAANSYVRSRALQFGIKPPVFEKTDVHIHVPDGATPKDGPSAGIAMALAMVSVLTGIPIRKDIAMTGEITLRGRVTAIGGLKEKLLAALRSGVKTVLIPQENEKDLADVPQTVKDGLEIIPVSTVDEVLKHALTGPLTPVEWNEAEEPITTSAKKDDGDSDAMLTH
notes: predicted molecular weight of the hexamer 529,458 Da; Deficient in ATP hydrolysis; source: E. coli BL21-SI/pCodonPlus, purified (Talon, Ulp1 cleavage, anion exchange)
Turning to B1, the stoichiometry N – broadly, a count of units in the complex or per binding partner – in data set [4] amounted to 6.
